From US20120230939A1 (BOARD OF TRUSTEES OF THE UNIVERSITY OF ILLINOIS, published 2012)

B1: PSA 210-230 peptide (peptide)
peptide: CALPERPSLYTKVVHYRKWIK
notes: Synthetic peptide, >95% purity, bought from Research Genetics Inc; also called 21-mer PSA 210-230 peptide

What was measured:
HLA-A0201 [1] = biological target: T1, HLA-A0201 (human); experiment: cell-based or functional assay
T1 construct: whole, on cells; also called HLA-A201; HLA-A2

HLA-A0201 [2] = biological target: T1, HLA-A0201; experiment: T2 binding assay: stabilisation of HLA-A2 on T2 cells, flow cytometry
Excerpt: HLA-A2 expression was visualized by direct staining with FITC conjugated MA2.1 antibody or an isotype control (BD Biosciences, San Diego, Calif.) followed by analysis on a FC500 flow cytometer (Beckman Coulter, Miami, Fla.).

HLA-A0201 [3] = biological target: T1, HLA-A0201; experiment: T2 binding assay: HLA-A2 expression on T2 cells, flow cytometry
Description: Briefly, T2 cells (5×10⁵/well) were pulsed with PSA-peptide or DMSO at the designated concentration and cultured in 24-well plates overnight (18 hours) at 37° C. in 5% CO₂ atmosphere.

| Molecule | binding result (HLA-A0201 [2]) | further results |
| --- | --- | --- |
| anti-HLA-A2 monoclonal antibody (BB7.2) |  | fold decrease in cytolytic activity of CD8+ CTL induced with TEM8 298-306 against HepG2 targets (12-hour chromium release assay) (HLA-A0201 [1]): 2 fold |
| ALQGIIHSI (Synthetic peptide, >95% purity) [TEM8 207-215 peptide] | binds |  |
| TLNEKPFSV (Synthetic peptide, >95% purity) [TEM8 266-274 peptide] | no binding (tested: 1 to 80 ug/ml) |  |
| SMNDGLSFI (Synthetic peptide, >95% purity) [TEM8 298-306 peptide] | binds |  |
| B1 |  | binding result (HLA-A0201 [3]): binds |
